# Results taken from FireProtDB (doi:10.1021/bi000415x).
# B1: Protein P-30, P22069 (parent)
# chain: QDWLTFQKKHITNTRDVDCDNIMSTNLFHCKDKNTFIYSRPEPVKAICKGIIASKNVLTTSEFYLSDCNVTSRPCKYKLKKSTNKFCVTCENQAPVHFVGVGSC
# Variants of: B1
# Conditions: Lithobates pipiens; pH 2; 25 °C; Thermal; DSC; MES 100 mM; reversible: yes; structure 1ONC; whole UniProt chain shown
Variant,ddG of mutation (higher = less stable) [kcal/mol],unfolding free energy [kcal/mol]
M23L,2.51,6.33

# Same assay, conditions: Lithobates pipiens; pH 2; Thermal; DSC; MES 100 mM; reversible: yes; structure 1ONC; whole UniProt chain shown
Variant,Tm [°C],"change of melting temperature, mutant - wild type (higher = more stable) [°C]",heat capacity change of unfolding [kcal/mol/K],unfolding enthalpy (calorimetric) [kcal/mol],unfolding enthalpy (van 't Hoff) [kcal/mol]
M23L,62.2,-7.3,1.24,84.8,88.4

# Same assay, conditions: Lithobates pipiens; pH 2.5; 25 °C; Thermal; DSC; MES 100 mM; reversible: yes; structure 1ONC; whole UniProt chain shown
Variant,ddG of mutation (higher = less stable) [kcal/mol],unfolding free energy [kcal/mol]
M23L,2.29,7.24

# Same assay, conditions: Lithobates pipiens; pH 2.5; Thermal; DSC; MES 100 mM; reversible: yes; structure 1ONC; whole UniProt chain shown
Variant,Tm [°C],"change of melting temperature, mutant - wild type (higher = more stable) [°C]",heat capacity change of unfolding [kcal/mol/K],unfolding enthalpy (calorimetric) [kcal/mol],unfolding enthalpy (van 't Hoff) [kcal/mol]
M23L,65.8,-6.8,1.51,90.8,87.3

# Same assay, conditions: Lithobates pipiens; pH 3; 25 °C; Thermal; DSC; MES 100 mM; reversible: yes; structure 1ONC; whole UniProt chain shown
Variant,ddG of mutation (higher = less stable) [kcal/mol],unfolding free energy [kcal/mol]
M23L,2.77,8.03

# Same assay, conditions: Lithobates pipiens; pH 3; Thermal; DSC; MES 100 mM; reversible: yes; structure 1ONC; whole UniProt chain shown
Variant,Tm [°C],"change of melting temperature, mutant - wild type (higher = more stable) [°C]",heat capacity change of unfolding [kcal/mol/K],unfolding enthalpy (calorimetric) [kcal/mol],unfolding enthalpy (van 't Hoff) [kcal/mol]
M23L,68.9,-7.6,1.39,95.6,94.7

# Same assay, conditions: Lithobates pipiens; pH 3.5; 25 °C; Thermal; DSC; MES 100 mM; reversible: yes; structure 1ONC; whole UniProt chain shown
Variant,ddG of mutation (higher = less stable) [kcal/mol],unfolding free energy [kcal/mol]
M23L,2.89,9.32

# Same assay, conditions: Lithobates pipiens; pH 3.5; Thermal; DSC; MES 100 mM; reversible: yes; structure 1ONC; whole UniProt chain shown
Variant,Tm [°C],"change of melting temperature, mutant - wild type (higher = more stable) [°C]",heat capacity change of unfolding [kcal/mol/K],unfolding enthalpy (calorimetric) [kcal/mol],unfolding enthalpy (van 't Hoff) [kcal/mol]
M23L,74.7,-6.9,1.48,103,99.8

# Same assay, conditions: Lithobates pipiens; pH 4; Thermal; DSC; MES 100 mM; reversible: yes; structure 1ONC; whole UniProt chain shown
Variant,Tm [°C],"change of melting temperature, mutant - wild type (higher = more stable) [°C]",heat capacity change of unfolding [kcal/mol/K],unfolding enthalpy (calorimetric) [kcal/mol],unfolding enthalpy (van 't Hoff) [kcal/mol]
M23L,80.7,-6.1,1.34,112,115

# Same assay, conditions: Lithobates pipiens; pH 5; 25 °C; Thermal; DSC; MES 100 mM; reversible: yes; structure 1ONC; whole UniProt chain shown
Variant,ddG of mutation (higher = less stable) [kcal/mol],unfolding free energy [kcal/mol]
M23L,2.65,11.5

# Same assay, conditions: Lithobates pipiens; pH 5; Thermal; DSC; MES 100 mM; reversible: yes; structure 1ONC; whole UniProt chain shown
Variant,Tm [°C],"change of melting temperature, mutant - wild type (higher = more stable) [°C]",heat capacity change of unfolding [kcal/mol/K],unfolding enthalpy (calorimetric) [kcal/mol],unfolding enthalpy (van 't Hoff) [kcal/mol]
M23L,82.3,-6,1.43,115,117

# Same assay, conditions: Lithobates pipiens; pH 6; 25 °C; GdnHCl; CD; MES 100 mM; reversible: yes; structure 1ONC; whole UniProt chain shown
Variant,ddG of mutation (higher = less stable) [kcal/mol],denaturant m value [kcal/mol/M],denaturant midpoint (higher = more stable) [M],unfolding free energy [kcal/mol]
M23L,3.06,3.25,3.4,11

# Same assay, conditions: Lithobates pipiens; pH 6; 25 °C; GdnHCl; Fluorescence; MES 100 mM; reversible: yes; structure 1ONC; whole UniProt chain shown
Variant,ddG of mutation (higher = less stable) [kcal/mol],denaturant m value [kcal/mol/M],denaturant midpoint (higher = more stable) [M],unfolding free energy [kcal/mol]
M23L,2.63,3.3,3.4,11.2

# Same assay, conditions: Lithobates pipiens; pH 6; 25 °C; Thermal; DSC; MES 100 mM; reversible: yes; structure 1ONC; whole UniProt chain shown
Variant,ddG of mutation (higher = less stable) [kcal/mol],unfolding free energy [kcal/mol]
M23L,2.65,11.5

# Same assay, conditions: Lithobates pipiens; pH 6; Thermal; DSC; MES 100 mM; reversible: yes; structure 1ONC; whole UniProt chain shown
Variant,Tm [°C],"change of melting temperature, mutant - wild type (higher = more stable) [°C]",heat capacity change of unfolding [kcal/mol/K],unfolding enthalpy (calorimetric) [kcal/mol],unfolding enthalpy (van 't Hoff) [kcal/mol]
M23L,82.8,-5.9,1.29,115,112

# Same assay, conditions: Lithobates pipiens; pH 7; 25 °C; Thermal; DSC; MES 100 mM; reversible: yes; structure 1ONC; whole UniProt chain shown
Variant,ddG of mutation (higher = less stable) [kcal/mol],unfolding free energy [kcal/mol]
M23L,2.22,11.5

# Same assay, conditions: Lithobates pipiens; pH 7; Thermal; DSC; MES 100 mM; reversible: yes; structure 1ONC; whole UniProt chain shown
Variant,Tm [°C],"change of melting temperature, mutant - wild type (higher = more stable) [°C]",heat capacity change of unfolding [kcal/mol/K],unfolding enthalpy (calorimetric) [kcal/mol],unfolding enthalpy (van 't Hoff) [kcal/mol]
M23L,82,-5.8,1.46,115,118

# Same assay, conditions: Lithobates pipiens; pH 8; 25 °C; Thermal; DSC; MES 100 mM; reversible: yes; structure 1ONC; whole UniProt chain shown
Variant,ddG of mutation (higher = less stable) [kcal/mol],unfolding free energy [kcal/mol]
M23L,2.39,10.6

# Same assay, conditions: Lithobates pipiens; pH 8; Thermal; DSC; MES 100 mM; reversible: yes; structure 1ONC; whole UniProt chain shown
Variant,Tm [°C],"change of melting temperature, mutant - wild type (higher = more stable) [°C]",heat capacity change of unfolding [kcal/mol/K],unfolding enthalpy (calorimetric) [kcal/mol],unfolding enthalpy (van 't Hoff) [kcal/mol]
M23L,79.1,-6.3,1.36,110,109
